# According to the supplement of paper PMC10567573:
# ± gives the standard deviation.
# Experiment: protein stability index of a GFP-peptide fusion (GPS, HEK-293T) (PSI 1-6); higher = more stable
# Conditions: c terminus: a fixed tail appended
# 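Also: 24-mer peptide tiles fused after GFP, lentivirally expressed, FACS-sorted into six equal bins by GFP/DsRed ratio, decoded by Illumina sequencing, PSI is the read-weighted mean bin number.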
Sequence,protein stability index (treatment: DMSO),"protein stability index (treatment: MLN4924 1 uM, 8 h)"
SSSSGPGHGEPDVLKDELQLYGDA [TMEM40],5.3 ± 0.15,5.32 ± 0.19
IVDKCTELLREGRASATTTITTAA [ZBTB22],3.78 ± 0.1,3.74 ± 0.18
IRPDPRSRVTDPVGDIVSFMHSFE [FAF2],3.06 ± 0.42,3.09 ± 0.33
AWNIPMSNPGVDFGDVSERLALRQ [GALNT9],3.68 ± 0.27,3.91 ± 0.26
QSSGKILLCPLCQEEEQAETPMAP [TRIM15],3.79 ± 0.36,4.28 ± 0.31
NENMAAKKKSVAMHTNYLSACSFT [GNB5],3.09 ± 0.21,3.25 ± 0.3
VRAWDLETGKLLWKVRYDTFIVSC [WDR88],2.67 ± 0.069,2.11 ± 0.48
VLTAVDGGTPARSGTTLISVIVLD [PCDHGC5],2.34 ± 0.47,2.26 ± 0.22
DRKARKPLVEKKRRARINESLQEL [HES6],4.37 ± 0.22,4.71 ± 0.13
SRIYGQAMAIINGSLYVFGGTTGY [KLHDC10],2.92 ± 0.3,2.87 ± 0.6
SYSIQKVIGFAKMIPGFRDLTSED [VDR],2.52 ± 0.29,2.88 ± 0.12
SAKPASLRLLQHTPSARRNYRIAG [C6orf223],3.43 ± 0.24,3.75 ± 0.22
YSEHFLQEAKLLHWNGRHKPWDFP [GLT8D2],2.17 ± 0.21,2.41 ± 0.36
KSAILVPSEKKVAIIRTPPKSPAT [MAP2],4.32 ± 0.14,4.41 ± 0.1
ECYDPRTQQWTAICPLKERRFGAV [GAN],2.69 ± 0.18,2.62 ± 0.3
FSLVGKRAISTSVCVRAHESVVKS [COX4I1],2.75 ± 0.14,2.94 ± 0.3
ENKDHSLERGRASLIFSLKNEVGG [TPH1],4.09 ± 0.18,3.82 ± 0.38
LRLRKERVSDVQKVLQGGEQEIQF [PKD2L1],3.74 ± 0.17,3.77 ± 0.34
RFAWPKVLKISYKRNNFYIKIRPG [EPB41L3],2.89 ± 0.63,2.2 ± 0.82
KCYLNGVKVPGIVRLRTLLCKVLG [CLCN6],2.93 ± 0.43,2.77 ± 0.36
NVKMIVLICVIVFIIILFIVLFAT [VAMP8],2.27 ± 0.3,2.37 ± 0.27
SINVMKQLIGSSNLFVMQVEMDIY [GMCL1],2.98 ± 0.49,2.82 ± 0.73
MSEPAGDVRQNPCGSKACRRLFGP [CDKN1A],3.58 ± 0.39,3.61 ± 0.14

Sequence,protein stability index (treatment: DMSO),"protein stability index (treatment: MLN4924 1 uM, 8 h)"
LLQHLLEACGRCEEVPEAYVDIHT [PYCR3],2.1 ± 0.48,2.42 ± 0.66
AWGFPENATAPRSPSHSPEHRRTA [ELOA2],5 ± 0.15,4.87 ± 0.16
LQTPLDIRLKESINCQLSDPSSTK [TRIM14],4.62 ± 0.29,4.55 ± 0.34
STGTSRWPSAKSAGWTLATLGEQG [SCNN1D],3.17 ± 0.16,3.16 ± 0.31
DALLGIDDLETMPDDLLTTLDDTC [ATF4],5.17 ± 0.16,5.05 ± 0.34
QDPQLHSPFSGSLHAPPAFYSTSS [VENTX],3.65 ± 0.2,3.75 ± 0.28
DEGDEPMPIPEDLSTTSGGQQSSK [IKZF1],5.42 ± 0.65,5.56 ± 0.28
ALYVQAPTVTIEGFLQALSLAVDK [TRIP13],2.09 ± 0.46,2.2 ± 0.17
AVPPTSSVPPVAGAPSVGQPGAGF [SNAP91],4.53 ± 0.23,4.42 ± 0.086
CELAQDKEAAEAIEAEGATAPLTE [CTNNB1],5.49 ± 0.41,5.53 ± 0.23
LGVYSALREIAFTRQLHEKTSQLS [ATE1],2.59 ± 0.71,2.4 ± 0.69
FVGYNPYSHLAYNNYRLGGNPSTN [SMARCE1],2.87 ± 0.21,2.54 ± 0.2
ASMSPDATKPSHWCSVAYWEHRTR [SMAD6],2.84 ± 0.24,2.87 ± 0.27
QGTTVPAHRAILVARCEVMAAMFN [RHOBTB3],2.1 ± 0.18,2.17 ± 0.097
PLGVLQAIAMYFLPPSPRFLVMKG [SLC2A12],2.64 ± 0.98,2.88 ± 1.3
EIANEDRKHALERFEQEAVAVDSN [CCDC89],5.01 ± 0.42,5.31 ± 0.16
QALSGTPKKGPAPSLSPGSSCVKY [TSPAN10],4.16 ± 0.059,4.37 ± 0.22
MASPDDPLRADHMVKEPVEDTDPS [EDARADD],5.52 ± 0.17,5.63 ± 0.2
ALRVQQLVAKELGQTGTRLTPADK [AUP1],4.04 ± 0.18,4.16 ± 0.14
RENILVSLGAVGEGFHNYHHSFPY [SCD],2.22 ± 0.13,2.11 ± 0.14
FREDGAYEFNPDFLEEAHEWNQKR [N4BP2L1],4.71 ± 0.16,4.53 ± 0.26
QDVTVVGSAGRLLAVGTDLYGQRN [GFOD1],3.4 ± 0.26,3.63 ± 0.32
RCVKSIIRQVLQGLDYLHSKCKII [SRPK2],2.73 ± 0.88,2.79 ± 0.59

Sequence,protein stability index (treatment: DMSO),"protein stability index (treatment: MLN4924 1 uM, 8 h)"
TVGGEERVSRKPTAAMRCMCPLYD [GAN],3.3 ± 0.21,3.46 ± 0.49
GRAVDQDKVLRFAQQIRLHHFNSS [MYORG],2.51 ± 0.27,2.75 ± 0.34
GKKYNTMLGYKRHLALHAASSGDL [PLAGL1],3.15 ± 0.12,3.28 ± 0.27
KKAFVWARNIGFKVNSKKMLGKYN [ACSBG2],2.5 ± 0.46,2.35 ± 0.38
TPLHLDLTQLHRLSLESSPDAPDH [PLEKHN1],4.59 ± 0.29,4.63 ± 0.23
MWYPEIKHFCPRTPVILVGCQLDL [RHOBTB1],2.91 ± 0.57,2.6 ± 0.65
RRERNNIAVRKSRDKAKMRNLETQ [CEBPB],4.28 ± 0.18,4.5 ± 0.19
EKKGLHEKALQVLVDQSKKANSPL [VPS39],4.65 ± 0.21,4.67 ± 0.18
RWLDESDAEMELRAKEEERLNKLR [HACD3],4.5 ± 0.3,4.84 ± 0.42
VTGMELEFKRLASSKAHTSRFISA [PTPRD],2.71 ± 0.33,2.81 ± 0.4
ELKTKLTKLEAEIVTLRHVLAAKE [TPD52L3],3.44 ± 0.27,3.64 ± 0.23
SVLMGHGVCMGLVAAACACGFTVA [OR10K2],2.9 ± 0.45,3.08 ± 0.41
FMTTNVPNVYPAAPQGGMAALNMS [ADD1],2.73 ± 0.41,2.87 ± 0.36
DPIVRPLWWIAPGDETAHRIDSQF [MYORG],3.23 ± 0.18,3.24 ± 0.27
MARPLVPSSQKALLLELKGLQEEP [CDC34],4.06 ± 0.13,3.98 ± 0.33
SYSSCGDFHYCDREHVCRKDQRNP [RBMY1A1],4.06 ± 0.41,4.09 ± 0.1
VLSLKEGAREEDLDAVEAQIGCKL [FBXO3],5.24 ± 0.49,4.6 ± 0.25
NTKEKIAFFASHQCSNRIGSMKIK [FBXO34],2.79 ± 0.19,2.72 ± 0.46
CQQEQLFQTRQEMTSMSAELKMRA [LRRC45],3.03 ± 0.42,3.1 ± 0.21
VRSQTLPRTSEAQARKALFEKWEQ [SMTNL2],3.98 ± 0.28,4.16 ± 0.47
IETSALDSTNVEAAFQTILTEIYR [RAB11A],2.35 ± 0.074,2.44 ± 0.44
QFGLLSFFFAVLHAIYSLSYPMRR [STEAP1],3.28 ± 1,2.058 ± 0.016
YQDKIRPYIQLPSHSNITGIVEVI [TRIB1],2.39 ± 0.3,2.17 ± 0.094

Sequence,protein stability index (treatment: DMSO),"protein stability index (treatment: MLN4924 1 uM, 8 h)"
HLMPFRQHCRQSLASRIRSNKKML [KLHL14],2.39 ± 0.11,2.34 ± 0.1
IWAFLDVSFVERILKSQKERQCAL [FBXO39],2.41 ± 0.53,2.24 ± 0.17
ETLITTIDSSSSWWTNWVIPAISA [CYB5A],2.47 ± 0.63,2.48 ± 0.49
EGVISVSEDRTVRVWLKRDSGQYW [WDFY2],2.17 ± 0.2,2.3 ± 0.12
GSGQRVPALEEAPDSHQKRPQHSH [ELOA2],5.26 ± 0.17,5.29 ± 0.33
LIKALKIFQEKHVNLLHIESRKSK [TPH1],2.28 ± 0.12,2.22 ± 0.23
VVEVTKGILEHVDSASPVEDTSND [M1AP],5.54 ± 0.23,5.47 ± 0.31
IWNILDLVVILLSIVAVGFHIFRT [PKD2L1],3.15 ± 0.64,2.45 ± 0.84
QFGIKDVFDNAIRAALISRRHLQF [RHOBTB1],2.62 ± 0.38,2.59 ± 0.46
YSSNQLHHFFCDIAPVLKLASHHN [OR10K2],2.59 ± 0.72,2.17 ± 0.38
HPMYRRLVHSAVDVPTIQEKVNEG [ZMYND11],4.11 ± 0.36,4.3 ± 0.17
AVLGLLLVLAAVVAWCYYSVSLRK [MYORG],2.69 ± 0.52,2.77 ± 0.78
LLSLDPVQDKTPLYSQLLQAYKWS [MED27],2.04 ± 0.22,1.97 ± 0.2
SGGGGGGGGGGGGGKSGGIVISPF [CCDC6],3.53 ± 0.41,3.37 ± 0.23
QRVPKVLVENAKNFPQCVLEISDQ [EFHC1],3.49 ± 0.19,3.81 ± 0.29
SKAGPTRIFTSNTHSSVVLQGFDQ [KLHL13],3.53 ± 0.32,3.32 ± 0.12
EPEEEILGSDDEEQEDPADYCKGG [SRPK2],5.54 ± 0.29,5.55 ± 0.24
AARSPQGLGASTAEISARTMQSMF [PTPRD],3.38 ± 0.26,3.29 ± 0.34
YEAGQVTLHNAQTQEPIFTFTASF [TRIM15],2.38 ± 0.17,2.11 ± 0.15
TRPKKMGSQLPKPRMLRESGHGDA [FATE1],4.53 ± 0.19,4.53 ± 0.22
